This note sets out measurements from the supplement of paper PMC9112550, “Optimization of the antimicrobial peptide Bac7 by deep mutational scanning” (BMC Biology, 2022).
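Note: peptides expressed intracellularly from a pBAD plasmid library in pooled LB shake-flask culture, induced with 0.3% L-arabinose, DNA abundance read by NGS, three biological replicates, DESeq2 with apeglm shrinkage.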

This data set concerns Escherichia coli TOP10. As to the kind of experiment: shrunken log2 fold change of peptide-encoding DNA abundance (4.5 h post-induction vs induction); higher = less antimicrobial activity (less host growth inhibition). To be noted: time post-induction: 4.5 h; library: site-saturation at positions 5, 18, 19, 20.
RRIRTRPPRLPRPRPRPQYPPRP: the “shrunken log2 fold change” value was -0.923.

In the case of RRIRTRPPRLPRPRPRPGKWPRP, the “shrunken log2 fold change” value is -0.192.

For the sequence RRIRFRPPRLPRPRPRPGMHPRP, the “shrunken log2 fold change” value is -0.24.

As to RRIRMRPPRLPRPRPRPRLKPRP, the “shrunken log2 fold change” value turned out to be 1.82.

Turning to RRIRSRPPRLPRPRPRPNCTPRP, the “shrunken log2 fold change” value is -0.531.

Turning to RRIRIRPPRLPRPRPRPTTGPRP, the “shrunken log2 fold change” value was -0.228.

As to RRIRKRPPRLPRPRPRPRKNPRP, the “shrunken log2 fold change” value stood at 0.876.

Turning to RRIRARPPRLPRPRPRPSFQPRP, the “shrunken log2 fold change” value is -0.0185.

As to RRIRGRPPRLPRPRPRPYNFPRP, the “shrunken log2 fold change” value was -0.35.

Consider RRIRYRPPRLPRPRPRPQQRPRP, for which the “shrunken log2 fold change” value was -0.261.

Turning to RRIRQRPPRLPRPRPRPMIGPRP, the “shrunken log2 fold change” value came to 0.0241.

With RRIRPRPPRLPRPRPRPNFYPRP, the “shrunken log2 fold change” value came to 0.356.

In the case of RRIRFRPPRLPRPRPRPGSHPRP, the “shrunken log2 fold change” value was -0.225.

For the sequence RRIRERPPRLPRPRPRPQSHPRP, the “shrunken log2 fold change” value is -0.268.

As for RRIRKRPPRLPRPRPRPEPWPRP, the “shrunken log2 fold change” value worked out at 0.895.

On to RRIRNRPPRLPRPRPRPKGGPRP, for which the “shrunken log2 fold change” value came out at 0.226.

Consider RRIRDRPPRLPRPRPRPGKFPRP, for which the “shrunken log2 fold change” value is -0.0736.

Regarding RRIRVRPPRLPRPRPRPTYSPRP, the “shrunken log2 fold change” value is -0.0431.

In the case of RRIRWRPPRLPRPRPRPTDIPRP, the “shrunken log2 fold change” value was -0.151.

On to RRIRMRPPRLPRPRPRPGRMPRP, for which the “shrunken log2 fold change” value worked out at 0.993.

Consider RRIRWRPPRLPRPRPRPMQMPRP, for which the “shrunken log2 fold change” value was 1.53.

As for RRIRERPPRLPRPRPRPWKYPRP, the “shrunken log2 fold change” value was -0.0185.

Turning to RRIRTRPPRLPRPRPRPIHTPRP, the “shrunken log2 fold change” value was -0.371.

For the sequence RRIRGRPPRLPRPRPRPCFMPRP, the “shrunken log2 fold change” value was determined as 0.0852.

RRIRCRPPRLPRPRPRPWFGPRP: the “shrunken log2 fold change” value is -0.374.

For RRIRWRPPRLPRPRPRPVASPRP, the “shrunken log2 fold change” value was determined as 0.27.

As to RRIRTRPPRLPRPRPRPNARPRP, the “shrunken log2 fold change” value is -0.0251.

For the sequence RRIRDRPPRLPRPRPRPYYHPRP, the “shrunken log2 fold change” value is -0.972.

Turning to RRIRERPPRLPRPRPRPQKDPRP, the “shrunken log2 fold change” value was -0.298.

As for RRIRVRPPRLPRPRPRPEWDPRP, the “shrunken log2 fold change” value came to 0.454.

Turning to RRIRERPPRLPRPRPRPSITPRP, the “shrunken log2 fold change” value was -1.36.

Take RRIRWRPPRLPRPRPRPIFVPRP: the “shrunken log2 fold change” value amounted to 0.0493.

Consider RRIRDRPPRLPRPRPRPAGWPRP, for which the “shrunken log2 fold change” value came to 1.05.

Regarding RRIRFRPPRLPRPRPRPYHKPRP, the “shrunken log2 fold change” value was -0.6.

Consider RRIRNRPPRLPRPRPRPWLNPRP, for which the “shrunken log2 fold change” value is -0.00264.

Consider RRIRPRPPRLPRPRPRPISMPRP, for which the “shrunken log2 fold change” value is -0.0272.

With RRIRNRPPRLPRPRPRPTRHPRP, the “shrunken log2 fold change” value was 0.162.

Turning to RRIRCRPPRLPRPRPRPSLLPRP, the “shrunken log2 fold change” value was -0.386.

With RRIRVRPPRLPRPRPRPNSRPRP, the “shrunken log2 fold change” value is 0.00966.

As to RRIRWRPPRLPRPRPRPIDMPRP, the “shrunken log2 fold change” value is 0.0712.

Turning to RRIRLRPPRLPRPRPRPPAPPRP, the “shrunken log2 fold change” value worked out at 0.789.

Take RRIRQRPPRLPRPRPRPKEMPRP: the “shrunken log2 fold change” value was 0.229.

With RRIRERPPRLPRPRPRPSGKPRP, the “shrunken log2 fold change” value was -0.119.

Turning to RRIRKRPPRLPRPRPRPYFQPRP, the “shrunken log2 fold change” value is -0.265.

With RRIRPRPPRLPRPRPRPISYPRP, the “shrunken log2 fold change” value was -0.163.

Regarding RRIRRRPPRLPRPRPRPTYAPRP, the “shrunken log2 fold change” value worked out at 0.218.

As to RRIRYRPPRLPRPRPRPAEAPRP, the “shrunken log2 fold change” value is 0.0062.

Turning to RRIRIRPPRLPRPRPRPHQMPRP, the “shrunken log2 fold change” value was found to be 0.0234.

As to RRIRKRPPRLPRPRPRPIEWPRP, the “shrunken log2 fold change” value was 0.404.

Turning to RRIRPRPPRLPRPRPRPGYRPRP, the “shrunken log2 fold change” value was -0.051.
